Experimental findings from publication PMC4161306, “Regulation of Arabidopsis Flowering by the Histone Mark Readers MRG1/2 via Interaction with CONSTANS to Modulate FT Expression” (PLoS Genetics, 2014) are described below.

Where no end group is shown, it is not given here. Me3 = trimethyl-lysine; Me2 = dimethyl-lysine

In assay [1] the target is T1, MRG2 chromodomain (residues 41-123) (Arabidopsis thaliana, UniProt Q4V3E2 41-123).
T1 construct: Arabidopsis thaliana MRG2 chromodomain, residues 41-123; Construct of the ITC; source: cloned into pET28-SMT3, purified, tag removed
T1 sequence (looked up): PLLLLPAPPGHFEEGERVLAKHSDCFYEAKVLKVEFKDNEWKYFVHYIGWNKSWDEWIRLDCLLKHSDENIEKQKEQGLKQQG
Kind of assay: ITC; 25 C, MicroCal iTC200; 50 mM Tris pH 8.0, 100 mM NaCl; 0.2-0.4 mM protein in the cell, 2-4 mM peptide injected in 2 ul aliquots (20 injections); one-site model. To be noted: both partners purified.

For assay [2], the target named is T2, GST-fused CONSTANS (CO) (Arabidopsis thaliana, UniProt Q39057 1-373).
T2 construct: Arabidopsis transcription factor CONSTANS (CO); CO cDNA amplified with primers CO-1/CO-2; also called GST-CO; source: E. coli, pGEX-4T-1, purified
T2 sequence (looked up): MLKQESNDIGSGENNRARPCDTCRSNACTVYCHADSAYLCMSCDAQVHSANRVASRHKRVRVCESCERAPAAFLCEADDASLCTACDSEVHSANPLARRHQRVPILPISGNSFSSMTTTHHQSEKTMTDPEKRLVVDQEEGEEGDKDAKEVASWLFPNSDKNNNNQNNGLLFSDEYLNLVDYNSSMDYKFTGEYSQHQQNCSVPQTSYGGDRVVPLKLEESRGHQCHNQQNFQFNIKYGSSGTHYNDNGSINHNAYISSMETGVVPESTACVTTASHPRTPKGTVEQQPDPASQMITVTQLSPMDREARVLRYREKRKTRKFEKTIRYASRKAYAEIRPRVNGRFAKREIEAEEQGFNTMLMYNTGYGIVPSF
In words: pull-down; GST-fused CO (or GST alone) with His-tagged MRG2, MRG2C or MRG2N, purified from E. coli; protocol of ref. 51. The following applies: both partners purified.

In assay [1], KQTARK(Me3)STGG [H3K9me3 peptide (residues 4-13)] came in with a Kd of 1.2 mM.

B1: His-tagged MRG2 (natural protein, Arabidopsis thaliana, UniProt Q4V3E2 1-327, looked up)
chain: MGSPNAAAETDLTTDDFIGDTRRDSGSDTETNTDCDGEDLPLLLLPAPPGHFEEGERVLAKHSDCFYEAKVLKVEFKDNEWKYFVHYIGWNKSWDEWIRLDCLLKHSDENIEKQKEQGLKQQGIKSAMAWKVSKMKPRSPNVARGRKRKQDSVDTEKNVLPSDNLLSFNIPPALRKQLLDDFEFVTQMQKLVQLPRSPNVDGILKKYIDSQMKKHGRVTDSLEEILKGLRCYFDKALPVMLLYNNERKQYEESVSGGVSPSTVYGAEHLLRLFVKLPELLVHVNMAEETLKELQDNFVDILRFLRKNQSVLFVSTYKAVEEMEKKEG
notes: Arabidopsis MRG2 cDNA amplified with primers MRG2-1/MRG2-10; MRG2-1 is the forward primer of MRG2N (cDNA from nucleotide 1) and MRG2-10 the reverse primer of MRG2C (cDNA to nucleotide 984); also called MRG2 tagged with multiple His residues; His-MRG2; source: E. coli, pET-30a, purified (His tag)
In the case of B1, in assay [2], the binding result is reported as “binds”.

B2: His-tagged MRG2C (MRG domain of MRG2) (domain or fragment, Arabidopsis thaliana, UniProt Q4V3E2 148-327, looked up)
chain: RKQDSVDTEKNVLPSDNLLSFNIPPALRKQLLDDFEFVTQMQKLVQLPRSPNVDGILKKYIDSQMKKHGRVTDSLEEILKGLRCYFDKALPVMLLYNNERKQYEESVSGGVSPSTVYGAEHLLRLFVKLPELLVHVNMAEETLKELQDNFVDILRFLRKNQSVLFVSTYKAVEEMEKKEG
notes: Arabidopsis MRG2; MRG2C is cDNA 442-984, which are nucleotides, i.e. from residue 148 to the C-terminus; holds the MRG domain; source: E. coli, pET-30a, purified (His tag)
Take B2: the binding result in assay [2] was “binds”.
In assay [1], KAARK(Me3)SAPA [H3K27me3 peptide (residues 23-31)] displayed a Kd of 2.5 mM.
Same read-out and setting: then ARTK(Me2)QTARK [H3K4me2 peptide (residues 1-9)], with 2.4 mM.
